Changes are numbered by the printed parent chain.
Molecular target: GluA1::SNAP396 (UniProt P19490)
UniProt P19490, sequence (P19490 19-907): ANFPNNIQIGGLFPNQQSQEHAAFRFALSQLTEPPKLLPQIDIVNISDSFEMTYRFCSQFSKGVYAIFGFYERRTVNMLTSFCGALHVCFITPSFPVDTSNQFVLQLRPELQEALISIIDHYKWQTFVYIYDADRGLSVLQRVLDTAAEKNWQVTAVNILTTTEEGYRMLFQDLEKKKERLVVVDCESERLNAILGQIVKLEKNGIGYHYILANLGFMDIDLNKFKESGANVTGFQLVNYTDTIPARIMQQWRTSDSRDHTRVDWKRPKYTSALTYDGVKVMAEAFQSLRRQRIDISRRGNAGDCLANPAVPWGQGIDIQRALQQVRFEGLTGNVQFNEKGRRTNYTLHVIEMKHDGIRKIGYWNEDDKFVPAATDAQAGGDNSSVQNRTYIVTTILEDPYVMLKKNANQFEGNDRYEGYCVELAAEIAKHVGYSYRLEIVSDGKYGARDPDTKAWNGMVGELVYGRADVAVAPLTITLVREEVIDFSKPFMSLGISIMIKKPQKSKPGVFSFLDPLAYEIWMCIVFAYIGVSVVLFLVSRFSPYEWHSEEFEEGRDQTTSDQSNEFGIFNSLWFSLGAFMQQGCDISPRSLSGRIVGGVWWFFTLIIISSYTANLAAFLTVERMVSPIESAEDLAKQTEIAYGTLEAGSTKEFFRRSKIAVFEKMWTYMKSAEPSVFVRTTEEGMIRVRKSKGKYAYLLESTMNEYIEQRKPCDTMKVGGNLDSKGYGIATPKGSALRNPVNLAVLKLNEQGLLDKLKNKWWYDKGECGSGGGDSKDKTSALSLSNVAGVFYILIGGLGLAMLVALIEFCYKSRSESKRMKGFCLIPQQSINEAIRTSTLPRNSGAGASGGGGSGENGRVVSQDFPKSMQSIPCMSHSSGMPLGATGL

B1: γ2 S44* (natural protein)
chain: MGLFDRGVQMLLTTVGAFAAFSLMTIAVGTDYWLYSRGVCKTKKVSENETSKKNEEVMTHSGLWRTCCLEGNFKGLCKQIDHFPEDADYEADTAEYFLRAVRASSIFPILSVILLFMGGLCIAASEFYKTRHNIILSAGIFFVSAGLSNIIGIIVYISANAGDPSKSDSKKNSYSYGWSFYFGALSFIIAEMVGVLAVHMFIDRHKQLRATARATDYLQASAITRIPSYRYRYQRRSRSSSRSTEPSHSRDASPVGVKGFNTLPSTEISMYTLSRDPLKAATTPTATYNSDRDNSFLQVHNCIQKDSKDSLHANTANRRTTPV
modifications: TCO*A (trans-cyclooct-2-ene-L-lysine) at 44, clicked with H-Tet-Cy3
B1 gave a recovery from desensitization τrec, whole-cell patch clamp, HEK293T cells with untagged GluA1 (flip isoform) and γ2 S44*::eGFP (GluA1 alone 162.6) of 62.3 ms.

B2: γ2::eGFP (natural protein)
chain: B1 chain with K44S
With B2 the recovery from desensitization τrec, whole-cell patch clamp, HEK293T cells with untagged GluA1 (flip isoform) and γ2::eGFP (GluA1 alone 162.6) was 57.1 ms.

B3: γ8::eGFP (natural protein)
chain: MESLKRWNEERGLWCEKGVQVLLTTIGAFAAFGLMTIAISTDYWLYTRALICNTTNLTAGDDGPPHRGGSGSSEKKDPGGLTHSGLWRICCLEGLKRGVCVKINHFPEDTDYDHDSAEYLLRVVRASSIFPILSAILLLLGGVCVAASRVYKSKRNIILGAGILFVAAGLSNIIGVIVYISANAGEPGPKRDEEKKNHYSYGWSFYFGGLSFILAEVIGVLAVNIYIERSREAHCQSRSDLLKAGGGAGGSGGSGPSAILRLPSYRFRYRRRSRSSSRGSSEASPSRDASPGGPGGPGFASTDISMYTLSRDPSKGSVAAGLASAGGGGGGAGVGAYGGAAGAAGGGGTGSERDRGSSAGFLTLHNAFPKEAASGVTVTVTGPPAAPAPAPPAPAAPAPGTLSKEAAASNTNTLNRKTTPV
B3 gave a recovery from desensitization τrec, whole-cell patch clamp, HEK293T cells with untagged GluA1 (flip isoform) and γ8::eGFP (GluA1 alone 162.6) of 40.9 ms.

B4: γ8 S72* (natural protein)
chain: B3 chain with S72K
modifications: TCO*A (trans-cyclooct-2-ene-L-lysine) at 72, clicked with H-Tet-Cy3
In the case of B4, the recovery from desensitization τrec, whole-cell patch clamp, HEK293T cells with untagged GluA1 (flip isoform) and γ8 S72*::eGFP (GluA1 alone 162.6) is reported as 45.8 ms.

From paper PMC8602626
